Results from patent publication US20080044436A1, “Method for Screening and Compositions for Treating Cancers” (priority 2004, published 2008).

B1: TReP-132: Transcriptional Regulating Protein of 132 kDa, polypeptide comprising SEQ ID NO: 2; here expressed in cells from vectors (protein)
chain: MGDQQLYKTNHVAHGSENLFYQQPPLGVHSGLNHNYGNAVTGGGMDAPQASPISPHFPQDTRDGLGLPVGSKNLGQMDTSRQGGWGSHAGPGNHVQLRGNLANSNMMWGAPAQAEPTDGYQYTYSQASEIRTQKLTSGVLHKLDSFTQVFANQNLRIQVNNMAQVLHTQSAVMDGAPDSALRQLLSQKPMEPPAPAIPSRYQQVPQQPHPGFTGGLSKPALQVGQHPTQGHLYYDYQQPLAQVPVQGGQPLQAPQMLSQHMQQMQQHQYYPPQQQQQAGQQRISMQEIQTQPQQIRPSQPQPPPQQQQPQQLQLQQRQGSMQIPQYYQPQPMMQHLQEQQQQQMHLQPPSYHRDPHQYTPEQAHTVQLIPLGSMSQYYYQEPQQPYSHPLYQQSHLSQHQQREDSQLKTYSSDRQAQAMLSSHGDLGPPDTGMGDPASSDLTRVSSTLPHRPLLSPSGIHLNNMGPQHQQLSPSAMWPQMHLPDGRAQPGSPESSGQPKGAFGEQFDAKNKLTCSICLKEFKNLPALNGHMRSHGGMRASPNLKQEEGEKVLPPQPQPPLPPPPPPPPPPQLPPEAESLTPMVMPVSVPVKLLPPKPSSQGFTNSTVAAPSARDKPASSMSDDEMPVLEIPRKHQPSVPKAEEPLKTVQEKKKFRHRPEPLFIPPPPSYNPNPAASYSGATLYQSQLRSPRVLGDHLLLDPTHELPPYTPPPMLSPVRQGSGLFSNVLISGHGPGAHPQLPLTPLTPTPRVLLCRSNSIDGSNVTVTPGPGEQTVDVEPRINIGLRFQAEIPELQDISALAQDTHKATLVWKPWPELENHDLQQRVENLLNLCCSSALPGGGTNSEFALHSLFEAKGDVMVALEMLLLRKPVRLKCHPLANYHYAGSDKWTSLERKLFNKALATYSKDFIFVQKMVKSKTVAQCVEYYYTWKKIMRLGRKHRTRLAEIIDDCVTSEEEEELEEEEEEDPEEDRKSTKEEESEVPKSPEPPPVPVLAPTEGPPLQALGQPSGSFICEMPNCGAVFSSRQALNGHARIHGGTNQVTKARGAIPSGKQKPGGTQSGYCSVKSSPSHSTTSGETDPTTIFPCKECGKVFFKIKSRNAHMKTHRQQEEQQRQKAQKAAFAAEMAATIERTTGPVGAPGLLPLDQLSLIKPIKDVDILDDDVVQQLGGVMEEAEVVDTDLLLDDQDSVLLQGDAEL

Tests used:
p27 promoter = experiment: Luciferase reporter assay in T47-D cells, p27 promoter; format: cell-based, human; conditions: 30 nM progesterone for 34 hours or TReP-132 expression vector
Protocol: (§1) FIGS. 14A and 14B: T47-D cells were cotransfected with reporter constructs containing the p21 (FIG. 14A) or p27 (FIG. 14B) promoter. Twelve hours post-transfection, the cells were incubated with 30 nM progesterone or ethanol for 34 hours. The cell lysates were then assayed for luciferase activity. Luciferase activity of the −93p21 Luc and −549p27 Luc constructs represent level 1. Arrows indicate transcription initiation sites.
(§2) The pGL2 and pGL3 reporter constructs (100 ng) were cotransfected with the indicated amounts of expression vectors and 10 ng of the control plasmid pRL.Null. The amount of plasmid was then normalized with the empty vector pcDNA3. After 12 hours of transfection, the medium was changed and cells were incubated for an additional 10 and 34 hours, respectively. During this period, T47-D cells were cultured in the presence and absence of progesterone (30 nM). The cells were then harvested and cell lysates (20 μl) were assayed for luciferase activity (Dual Luciférase™ Reporter Assay System, Promega, Madison, Wis., USA) in a Berthold LUMAT LB9501 luminometer. The transfections were performed in triplicate and each experiment was repeated at least three times.

TReP-132 mRNA = experiment: Quantitative RT-PCR of TReP-132 mRNA in T47-D cells; format: cell-based, human; conditions: 30 nM progesterone, 48 hours of exposure
Protocol: Total RNA from T47-D cells treated or not with progesterone was reverse transcribed and TReP-132 transcript levels were measured by quantitative RT-PCR as described in Gizard et al. (2004) using primers specific for […] and [NT]). […] Transfection was carried out by using the GeneSilencer reagent (Gene Therapy Systems, San Diego, USA) as directed by the manufacturer. Transfection efficiency was verified by FACS analysis (Fluorescence-Activated Cell Sorting) (see below). […] Statistical analyses were carried out with the nonparametric Kruskal-Wallis test.

p21 promoter = experiment: Luciferase reporter assay in T47-D cells, p21 promoter; format: cell-based, human; conditions: 30 nM progesterone for 34 hours or TReP-132 expression vector
Protocol: as §1, §2

T47-D cells = experiment: T47-D cell proliferation (cell counts) with control or TReP-132 siRNA and progesterone; format: cell-based, human; conditions: T47-D transfected control cells, 30 nM progesterone, 4 to 6 days of treatment
Protocol: FIG. 3: Induction of TReP-132 by progesterone and suppression of progesterone inhibition of T47-D cell proliferation following TReP-132 knockdown by using small interfering RNA (“siRNA”). (T47-D cells were treated for the indicated times with 30 nM progesterone). Experiments were carried out in triplicate, and values represent the mean ±SD of a representative experiment.
FIG. 3B: Cells transfected with control siRNA or TReP-132 siRNA (400 ng) at 0 and 3 days were recovered at days 2, 4 or 6 and counted. (ns: not significant −*, p<0.05; **, […]; ***, p<0.001).
The sense 5′-[…]-3′ and the antisense 5′-[…]-3′ oligonucleotides were synthesized (Eurogentec) and used to generate double-stranded siRNA specific for TReP-132 (21 bp corresponding to amino acids 861-881 […] the initiation codon of the human TReP-132 gene). […] Transfection was carried out by using the GeneSilencer reagent (Gene Therapy Systems, San Diego, USA) as directed by the manufacturer. Transfection efficiency was verified by FACS analysis (Fluorescence-Activated Cell Sorting) (see below). […] Statistical analyses were carried out with the nonparametric Kruskal-Wallis test.

p27^KiP1 gene = experiment: RNase protection assay of CDKI transcription in HeLa cells, p27; format: cell-based, human; conditions: HeLa Tet-off cells, doxycycline removed
Protocol: (§3) All radiolabelled probes specific for the p130, Rb, p107, p53, p57, p27, p21, p19, p18, p14/p15, L32, and GAPDH genes were labelled with [α-^32P]UTP-ribonucleotide (PerkinElmer Life Sciences, Woodbridge, Ontario, CA) in the conditions specified in the “hCC-2 Muti-Probe Template Set” kit (Pharmingen, Mississauga, Ontario, CA). Ribonuclease protection experiments were carried out with the Ribonuclease III Protection kit (Ambion, Austin, Tex.). Ten micrograms of HeLa cell RNA were hybridized with the radiolabelled probe mixture at 56° C. and then digested for 45 min at 30° C. in RNase A/RNase T1 solution diluted 1:1000 in digestion buffer. The samples were separated on a polyacrylamide-6% urea gel.

p21^CIP1/WAF1 gene = experiment: RNase protection assay of CDKI transcription in HeLa cells, p21; format: cell-based, human; conditions: HeLa Tet-off cells, doxycycline removed
Protocol: as §3

ER = experiment: GST pull-down, TReP-132 and ER; format: binding; conditions: GST pull-down with 35S-ER
Protocol: GST-TReP-132 wt was analyzed in terms of the interaction with the ^35[S]-ER, as described previously.
In order to evaluate the interaction of TReP-132, Sp1, ER and PR, the wt and mutant GST-TReP-132 fusion proteins were expressed, then immobilized on glutathione-Sepharose as described (Frangioni and Neel, 1993; Monte et al., 1998). The ^35S-[Sp1], ^35S-[ER] and ^35S-[PR-B] proteins were synthesized in vitro using a rabbit reticulocyte lysate and T7 RNA polymerase system as directed by the manufacturer (Promega Corporation, Madison, Wis.). Proteins which bound, then detached from the Sepharose after being heated to boiling in SDS buffer were then separated on a 10% SDS-PAGE gel. The gels were stained with Coomassie blue, dried and autoradiographed.

Molecule | p27 promoter activation (p27 promoter) | TReP-132 mRNA levels, peak increase (TReP-132 mRNA) | p21 promoter activation (p21 promoter) | cell proliferation (T47-D cells) | p27 gene transcription (p27^KiP1 gene) | p21 gene transcription (p21^CIP1/WAF1 gene) | interaction with ER (ER)
CC(=O)[C@H]1CC[C@H]2[C@@H]3CCC4=CC(=O)CC[C@]4(C)[C@H]3CC[C@]12C [progesterone, reference compound] | activated the two promoters | 3 fold | activated the two promoters | inhibited cell proliferation |  |  | 
B1 | activated the two promoters |  | activated the two promoters |  | induction | induction | interact
